Source: publication doi:10.1101/2023.09.18.558202 (bioRxiv, 2023)

Molecular target: the molecule itself
Test: SEC

B1: F420-dependent methylene-tetrahydromethanopterin reductase (Mer) from Methanocaldococcus jannaschii (enzyme, UniProt Q58929 1-331, looked up)
chain: MKFGIEFVPNEPIQKLCYYVKLAEDNGFEYCWITDHYNNRNVYMALTAIAMNTNKIKLGPGVTNPYVRSPAITASAIATLDELSGGRAVLGIGPGDKATFDALGIEWVKPVTTLKESIEVIRKLLAGERVSYEGKVVKIAGAALAVKPIQKAVPVYMGAQGPKMLETAGMIADGVLINASNPKDFEAAIPLIKKGAEAAGRSMDEIDVAAYACMSVDKNADKAKQAAVPVVAFIAAGSPPVVLERHGIDMEKVEAIRNALKSGNFPEAFKNVDDTMLEAFSIYGTPEDVVEKCKKLAEMGVTQIVAGSPIGPNKETAIKLIGKKVIPALKE
stoichiometry N: 2
